This data set in a line: self-splicing fitness, log relative to wild type (ln ratio); higher = more splicing; Tetrahymena group I intron in knt gene, E. coli kanamycin selection, DiMSum; sequences stand for … in CUCUCU…GGAGGGAAAAGUUAUCAGGCAUGCACCUGGUAGCUAGUCUUUAAACCAAUAGAUUGCAUCGGUUUAAAAGGCAAGACCGUCAAAUUGCGGGAAAGGGGUCAACAGCCGUUCAGUACCAAGUCUCAGGGGAAACUUUGAGAUGGCCUUGCAAAGGGUAUGGUAAUAAGCUGACGGACAUGGUCCUAACCACGCAGCCAAGUCCUAAGUCAACAGAUCUUCUGUUGAUAUGGAUGCAGUUCACAGACUAAAUGUCGGUCGGGGAAGAUGUAUUCUUCUCAUAAGAUAUAGUCGGACCUCUCCUUAAUGGGAGCUAGCGGAUGAAGUGAUGCAACACUGGAGCCGCUGGGAACUAAUUUGUAUGCGAAAGUAUAUUGAUUAGUUUUGGAGUACUCGUGGUCG
The method in brief:
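A randomised library covering all eight P1ex-region intron nucleotides was built with the intron in the knt kanamycin-resistance gene on pET-22b(+) and held in E. coli BL21(DE3). Cells were grown overnight at 37°C or 30°C on LB agar, with or without 25 μg/mL kanamycin, plus 100 μg/mL carbenicillin, 50 μM IPTG and 0.2% rhamnose, and pooled colonies were amplicon-sequenced on an Illumina HiSeq 2500. DiMSum fitness is the error-weighted combination of wild-type-normalised replicate fold changes, kanamycin versus none.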

± gives the uncertainty stated by the source.

Turning to AUCAAGCAAUAUUACGCAUG, the “self-splicing fitness (ln)” value by setting is: (30 °C) -3.06 ± 0.12; (37 °C) -1.56 ± 0.098.
Taken in the same sequence, the figures for CGUUAGCAAUAUUACGACCG were -1.13 ± 0.14 and -0.193 ± 0.2.
CCGGAGCAAUAUUACGGACG: the “self-splicing fitness (ln)” value (30 °C) was -2.82 ± 0.19 and the “self-splicing fitness (ln)” value (37 °C) was -1.31 ± 0.25.
For UUAGAGCAAUAUUACGUAAA, in that order: -2.69 ± 0.17 and 0.396 ± 0.13.
For the sequence UUAGAGCAAUAUUACGGGGC, the “self-splicing fitness (ln)” value (30 °C) is -3.24 ± 0.44.
UGCCAGCAAUAUUACGAGCC: the “self-splicing fitness (ln)” value by setting is: (30 °C) -0.839 ± 0.087; (37 °C) 0.369 ± 0.15.
For GCGAAGCAAUAUUACGUCGA, in that order: -2.01 ± 0.1 and -0.792 ± 0.094.
In the case of GAAAAGCAAUAUUACGACGG, the “self-splicing fitness (ln)” value is -2.29 ± 0.17 (30 °C) and -2.4 ± 0.32 (37 °C).
Taken in the same sequence, the figures for UGCAAGCAAUAUUACGUAAC were -4.96 ± 0.38 and -0.276 ± 0.14.
With ACGCAGCAAUAUUACGGUGU, the “self-splicing fitness (ln)” value (30 °C) was -3.81 ± 0.14 and the “self-splicing fitness (ln)” value (37 °C) was -2.29 ± 0.096.
As to UGACAGCAAUAUUACGAGAA, the “self-splicing fitness (ln)” value (37 °C) was -2.33 ± 0.29.
In the case of AUAAAGCAAUAUUACGGCAU, the “self-splicing fitness (ln)” value is 0.53 ± 0.098 (30 °C) and -0.0243 ± 0.11 (37 °C).
Taken in the same sequence, the figures for CCCUAGCAAUAUUACGGUAG were -3.6 ± 0.16 and -3.5 ± 0.21.
For UGUGAGCAAUAUUACGGUGG, the “self-splicing fitness (ln)” value (30 °C) was -2.64 ± 0.19 and the “self-splicing fitness (ln)” value (37 °C) was -3.01 ± 0.35.
For GCAGAGCAAUAUUACGUCUG, in that order: -3.95 ± 0.33 and -3.13 ± 0.47.
Taken in the same sequence, the figures for GGCUAGCAAUAUUACGCAUA were 0.253 ± 0.13 and 0.0704 ± 0.15.
For GCAGAGCAAUAUUACGCUAC, where the note is “37 °C”, the “self-splicing fitness (ln)” value is -1.68 ± 0.32.
On to ACGGAGCAAUAUUACGUUGU, for which the “self-splicing fitness (ln)” value is, setting by setting: (30 °C) -3.46 ± 0.14; (37 °C) -2.07 ± 0.13.
AGUAAGCAAUAUUACGUCUU: the “self-splicing fitness (ln)” value (30 °C) was -0.968 ± 0.072 and the “self-splicing fitness (ln)” value (37 °C) was -0.0602 ± 0.078.
For the sequence GAACAGCAAUAUUACGACUC, the “self-splicing fitness (ln)” value was 0.0151 ± 0.071 (30 °C) and -0.517 ± 0.082 (37 °C).
Take GAAAAGCAAUAUUACGAACU: the “self-splicing fitness (ln)” value (30 °C) is -0.519 ± 0.1 and the “self-splicing fitness (ln)” value (37 °C) turned out to be 0.532 ± 0.13.
Taken in the same sequence, the figures for GCCCAGCAAUAUUACGCAGG were -3.19 ± 0.13 and -2.27 ± 0.15.
Taken in the same sequence, the figures for AAAGAGCAAUAUUACGUCUG were -3.55 ± 0.22 and -2.36 ± 0.2.
Take GCGCAGCAAUAUUACGUGAU: the “self-splicing fitness (ln)” value is -0.659 ± 0.063 (30 °C) and 0.488 ± 0.083 (37 °C).
For ACGGAGCAAUAUUACGAGGU, the “self-splicing fitness (ln)” value is, setting by setting: (30 °C) -2.12 ± 0.22; (37 °C) -2.5 ± 0.29.
Taken in the same sequence, the figures for GUCAAGCAAUAUUACGUGUC were -2.72 ± 0.13 and -1.46 ± 0.12.
On to GGUUAGCAAUAUUACGGUGG, for which the “self-splicing fitness (ln)” value (37 °C) is -1.57 ± 0.31.
With CUUCAGCAAUAUUACGGGAG, the “self-splicing fitness (ln)” value by setting is: (30 °C) -3.41 ± 0.24; (37 °C) -2.52 ± 0.22.
For GCUCAGCAAUAUUACGACUG, in that order: -2.66 ± 0.35 and 0.178 ± 0.19.
Taken in the same sequence, the figures for AGAUAGCAAUAUUACGUGCU were -1.39 ± 0.1 and -0.664 ± 0.12.
Taken in the same sequence, the figures for UGAAAGCAAUAUUACGAAAG were -2.61 ± 0.15 and -0.866 ± 0.16.
For the sequence GUACAGCAAUAUUACGACCC, the “self-splicing fitness (ln)” value is -0.186 ± 0.36 (30 °C) and 0.979 ± 0.36 (37 °C).
Taken in the same sequence, the figures for GCCUAGCAAUAUUACGGGCA were -1.3 ± 0.12 and -1.61 ± 0.12.
For the sequence UACAAGCAAUAUUACGUCAU, the “self-splicing fitness (ln)” value (30 °C) was -3.94 ± 0.16 and the “self-splicing fitness (ln)” value (37 °C) was -1.05 ± 0.096.
For AUACAGCAAUAUUACGGGGC, in that order: -2.65 ± 0.12 and -3.57 ± 0.2.
For UCGUAGCAAUAUUACGCGAU, in that order: -3.29 ± 0.24 and -2.36 ± 0.28.
For GCUUAGCAAUAUUACGGAGU, in that order: -2.9 ± 0.26 and -0.418 ± 0.19.
For the sequence AGUGAGCAAUAUUACGAAUA, the “self-splicing fitness (ln)” value (37 °C) is -1.17 ± 0.22.
Take GACGAGCAAUAUUACGUAAC: the “self-splicing fitness (ln)” value (30 °C) was -3.16 ± 0.23 and the “self-splicing fitness (ln)” value (37 °C) was -0.414 ± 0.18.
On to GGCUAGCAAUAUUACGCCAU, for which, under “30 °C”, the “self-splicing fitness (ln)” value is -2.23 ± 0.22.
Turning to GGUUAGCAAUAUUACGUACA, the “self-splicing fitness (ln)” value was -0.759 ± 0.11 (30 °C) and -0.469 ± 0.11 (37 °C).
Taken in the same sequence, the figures for UUAAAGCAAUAUUACGUCAG were -0.815 ± 0.065 and 0.0256 ± 0.093.
As to CGAGAGCAAUAUUACGGACC, the “self-splicing fitness (ln)” value (30 °C) was -3.73 ± 0.44.
Turning to CGUGAGCAAUAUUACGUAAU, the “self-splicing fitness (ln)” value (30 °C) is -3.22 ± 0.26 and the “self-splicing fitness (ln)” value (37 °C) was -2.19 ± 0.25.
For the sequence AAUUAGCAAUAUUACGGUUA, the “self-splicing fitness (ln)” value by setting is: (30 °C) -0.622 ± 0.11; (37 °C) -0.183 ± 0.099.
For GGAAAGCAAUAUUACGCCAA, the “self-splicing fitness (ln)” value (30 °C) is -2.36 ± 0.41 and the “self-splicing fitness (ln)” value (37 °C) was -0.527 ± 0.29.
For CCACAGCAAUAUUACGGGAU, in that order: -4.56 ± 0.26 and -2.33 ± 0.15.
As to CGACAGCAAUAUUACGUGCU, the “self-splicing fitness (ln)” value was -4.84 ± 0.36 (30 °C) and -3.46 ± 0.23 (37 °C).
Taken in the same sequence, the figures for UGUUAGCAAUAUUACGGGUG were -0.781 ± 0.071 and -0.441 ± 0.086.
UAGGAGCAAUAUUACGUAUG: the “self-splicing fitness (ln)” value was -3.04 ± 0.22 (30 °C) and -1.71 ± 0.16 (37 °C).
For UGCUAGCAAUAUUACGAUGC, the “self-splicing fitness (ln)” value (30 °C) is -4.2 ± 0.34.
The same measure, in the same setting: under GCGUAGCAAUAUUACGACGC stands -3.7 ± 0.39.
Regarding CACUAGCAAUAUUACGGCAC, the “self-splicing fitness (ln)” value (30 °C) was -2.4 ± 0.11 and the “self-splicing fitness (ln)” value (37 °C) was -1.53 ± 0.18.
Consider UGCUAGCAAUAUUACGCAUC, for which the “self-splicing fitness (ln)” value is -3.95 ± 0.21 (30 °C) and -2.45 ± 0.17 (37 °C).
For GAUGAGCAAUAUUACGUAAA, in that order: -3.81 ± 0.17 and -1.37 ± 0.15.
Regarding GACUAGCAAUAUUACGCCCU, the “self-splicing fitness (ln)” value is, setting by setting: (30 °C) -9.77e-06 ± 0.2; (37 °C) -0.315 ± 0.21.
Taken in the same sequence, the figures for GCCAAGCAAUAUUACGAGUA were -3.27 ± 0.13 and -1.61 ± 0.07.
As to CUGAAGCAAUAUUACGGUCA, the “self-splicing fitness (ln)” value was -1.38 ± 0.096 (30 °C) and -0.796 ± 0.13 (37 °C).
For the sequence CUGAAGCAAUAUUACGGUGC, the “self-splicing fitness (ln)” value (30 °C) was -2.89 ± 0.25.
With AUCCAGCAAUAUUACGACUA, the “self-splicing fitness (ln)” value (30 °C) was -0.459 ± 0.097 and the “self-splicing fitness (ln)” value (37 °C) was -0.0254 ± 0.084.
Taken in the same sequence, the figures for CGCAAGCAAUAUUACGGCAU were -1.63 ± 0.071 and -0.555 ± 0.079.
For GUUUAGCAAUAUUACGGCGA, in that order: -0.198 ± 0.23 and -0.0729 ± 0.19.
On to CUAUAGCAAUAUUACGUCCA, for which the “self-splicing fitness (ln)” value was -4.03 ± 0.36 (30 °C) and -3.13 ± 0.4 (37 °C).
Consider CGCCAGCAAUAUUACGCACU, for which the “self-splicing fitness (ln)” value was -2.23 ± 0.14 (30 °C) and -1.47 ± 0.14 (37 °C).
In the case of GAGAAGCAAUAUUACGAUGU, the “self-splicing fitness (ln)” value runs as follows: (30 °C) -1.12 ± 0.13; (37 °C) -0.819 ± 0.21.
Taken in the same sequence, the figures for ACCAAGCAAUAUUACGCACA were -0.684 ± 0.075 and 0.0111 ± 0.087.
For UUUUAGCAAUAUUACGGUCC, the “self-splicing fitness (ln)” value was -2.8 ± 0.5 (30 °C) and -1.73 ± 0.43 (37 °C).
Take GUUAAGCAAUAUUACGAUGC: the “self-splicing fitness (ln)” value reads like this: (30 °C) -0.546 ± 0.18; (37 °C) -0.241 ± 0.18.
Consider UCCUAGCAAUAUUACGCUUA, for which the “self-splicing fitness (ln)” value runs as follows: (30 °C) -2.77 ± 0.23; (37 °C) -3.22 ± 0.35.
Taken in the same sequence, the figures for GUGAAGCAAUAUUACGCGGU were -3.01 ± 0.28 and -0.0814 ± 0.17.
For AUCCAGCAAUAUUACGCGCC, in that order: -0.363 ± 0.14 and 0.126 ± 0.17.
Taken in the same sequence, the figures for GUCAAGCAAUAUUACGCGUA were -1.32 ± 0.08 and -0.362 ± 0.077.
Take CUUCAGCAAUAUUACGCUGC: the “self-splicing fitness (ln)” value (37 °C) was -1.65 ± 0.18.
Regarding GAGUAGCAAUAUUACGACUU, the “self-splicing fitness (ln)” value is, setting by setting: (30 °C) -3 ± 0.15; (37 °C) -2.63 ± 0.24.
In the case of UAGAAGCAAUAUUACGUGAG, the “self-splicing fitness (ln)” value is -0.573 ± 0.06 (30 °C) and -0.716 ± 0.079 (37 °C).
For GUAGAGCAAUAUUACGUUUG, in that order: -2.91 ± 0.24 and -2.23 ± 0.29.
For GGCGAGCAAUAUUACGCGCA, in that order: -0.241 ± 0.17 and 0.253 ± 0.22.
For CAGAAGCAAUAUUACGAUCA, in that order: -2.19 ± 0.14 and -1.84 ± 0.17.
